IC50, inhibition of SDF-1 induced migration of Ramos cells, EC50 and Ki data for one substance are collected here from patent US20160237156A1.

The target in experiment [1] is SNAP-tag-CXCR4 (Tag-lite labeled CXCR4 cells, Cisbio Bioassays) (UniProt P61073). Put plainly: Tag-lite HTRF competition with 50 nM fluorescent SDF-1 on Tag-lite labeled CXCR4 cells.
In the next experiment the target is CXCR4 (human) (UniProt P61073). Put plainly: cell-based or functional assay.
Experiment [2] concerns the target SNAP-tag-CXCR4 (Tag-lite labeled CXCR4 cells, Cisbio Bioassays) (UniProt P61073). The experiment is described as follows: Tag-lite HTRF competition with 50 nM fluorescent SDF-1, Cheng-Prusoff. A general note: Time-resolved FRET reads energy transfer from a long-lived donor to a nearby acceptor.

Sequence of SNAP-tag-CXCR4 (Tag-lite labeled CXCR4 cells, Cisbio Bioassays) (P61073 whole entry): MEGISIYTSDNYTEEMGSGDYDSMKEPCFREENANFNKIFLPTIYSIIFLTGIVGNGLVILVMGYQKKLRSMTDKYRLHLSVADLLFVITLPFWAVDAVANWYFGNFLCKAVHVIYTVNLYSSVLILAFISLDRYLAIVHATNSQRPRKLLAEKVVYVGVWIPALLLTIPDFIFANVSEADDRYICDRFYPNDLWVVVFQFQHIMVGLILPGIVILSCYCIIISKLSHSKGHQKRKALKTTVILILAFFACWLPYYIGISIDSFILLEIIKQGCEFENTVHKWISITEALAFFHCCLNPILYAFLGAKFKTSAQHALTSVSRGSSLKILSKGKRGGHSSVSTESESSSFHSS
Sequence of CXCR4 (human) (P61073 whole entry): as above

The term IC50 denotes the concentration that gives 50% inhibition. A lower IC50 goes with higher potency. As a reminder, the Ki is the dissociation constant of the complex between target and ligand, obtained from inhibition or displacement. In the case of “mouse anti-human CXCR4 monoclonal antibody (Clone 12G5, R&D system)”, the IC50 in experiment [1] was determined as 4.4 nM. This substance also had an inhibition of SDF-1 induced migration of Ramos cells, EC50 with CXCR4 (human) of 2.1 nM. Further, the Ki in experiment [2] came out at 0.97 nM.
